Laboratory results as given in patent publication US20230174608A1 (published 2023).
Where no end group is shown, it is not given here. [ ]: non-standard residue; d: D form. Aib = CC(C)(N)C(=O)O

Columns and labels:
[1] = molecular target: GLP-1 receptor (GLP-1R), stably expressed on HEK293 cells; test: cell-based or functional assay
[2] = molecular target: Glucagon receptor (GCGR), stably expressed on HEK293 cells; test: cell-based or functional assay

GLP-1R (nM EC50), receptor-mediated cAMP production in HEK293 cells [1] [nM]	GCGR (nM EC50), receptor-mediated cAMP production in HEK293 cells [2] [nM]	Binder
0.401	1.3	HXQGTFTSDYSKYLDERAAKEFIAWLEGEG (HELM PEPTIDE1{H.[Aib].Q.G.T.F.T.S.D.Y.S.K.Y.L.D.E.R.A.A.K.E.F.I.A.W.L.E.G.E.G.[am]}|PEPTIDE2{[CCCCCCCCCCCCCCCC(=O)[*:2]].[gGlu]}$PEPTIDE1,PEPTIDE2,20:R3-2:R2$$$V2.0; N-terminus assumed; SMILES CCCCCCCCCCCCCCCC(=O)N[C@@H](CCC(=O)NCCCC[C@H](NC(=O)[C@H](C)NC(=O)[C@H](C)NC(=O)[C@H](CCCNC(=N)N)NC(=O)[C@H](CCC(=O)O)NC(=O)[C@H](CC(=O)O)NC(=O)[C@H](CC(C)C)NC(=O)[C@H](Cc1ccc(O)cc1)NC(=O)[C@H](CCCCN)NC(=O)[C@H](CO)NC(=O)[C@H](Cc1ccc(O)cc1)NC(=O)[C@H](CC(=O)O)NC(=O)[C@H](CO)NC(=O)[C@@H](NC(=O)[C@H](Cc1ccccc1)NC(=O)[C@@H](NC(=O)CNC(=O)[C@H](CCC(N)=O)NC(=O)C(C)(C)NC(=O)[C@@H](N)Cc1c[nH]cn1)[C@@H](C)O)[C@@H](C)O)C(=O)N[C@@H](CCC(=O)O)C(=O)N[C@@H](Cc1ccccc1)C(=O)N[C@H](C(=O)N[C@@H](C)C(=O)N[C@@H](Cc1c[nH]c2ccccc12)C(=O)N[C@@H](CC(C)C)C(=O)N[C@@H](CCC(=O)O)C(=O)NCC(=O)N[C@@H](CCC(=O)O)C(=O)NCC(N)=O)[C@@H](C)CC)C(=O)O) [dgc018]
1.13	0.806	HSQGTFTSDYSKYLDERAAKEFIAWLEAGG-NH2 (not fully specified (residue 20); printed as HSQGTFTSDYSKYLDERAAK*EFIAWLEAGG) [dgc001]
0.792	1.83	HXQGTFTSDYSKYLEERAAKEFIAWLEGEG (HELM PEPTIDE1{H.[Aib].Q.G.T.F.T.S.D.Y.S.K.Y.L.E.E.R.A.A.K.E.F.I.A.W.L.E.G.E.G.[am]}|PEPTIDE2{[CCCCCCCCCCCCCCCC(=O)[*:2]].[gGlu]}$PEPTIDE1,PEPTIDE2,20:R3-2:R2$$$V2.0; N-terminus assumed; SMILES CCCCCCCCCCCCCCCC(=O)N[C@@H](CCC(=O)NCCCC[C@H](NC(=O)[C@H](C)NC(=O)[C@H](C)NC(=O)[C@H](CCCNC(=N)N)NC(=O)[C@H](CCC(=O)O)NC(=O)[C@H](CCC(=O)O)NC(=O)[C@H](CC(C)C)NC(=O)[C@H](Cc1ccc(O)cc1)NC(=O)[C@H](CCCCN)NC(=O)[C@H](CO)NC(=O)[C@H](Cc1ccc(O)cc1)NC(=O)[C@H](CC(=O)O)NC(=O)[C@H](CO)NC(=O)[C@@H](NC(=O)[C@H](Cc1ccccc1)NC(=O)[C@@H](NC(=O)CNC(=O)[C@H](CCC(N)=O)NC(=O)C(C)(C)NC(=O)[C@@H](N)Cc1c[nH]cn1)[C@@H](C)O)[C@@H](C)O)C(=O)N[C@@H](CCC(=O)O)C(=O)N[C@@H](Cc1ccccc1)C(=O)N[C@H](C(=O)N[C@@H](C)C(=O)N[C@@H](Cc1c[nH]c2ccccc12)C(=O)N[C@@H](CC(C)C)C(=O)N[C@@H](CCC(=O)O)C(=O)NCC(=O)N[C@@H](CCC(=O)O)C(=O)NCC(N)=O)[C@@H](C)CC)C(=O)O) [dgc019]
0.382	3.93	H[Aib]QGTFTSDYSKYLEERAAKEFIAWLEGEG-NH2 (not fully specified (residue 20); printed as HAibQGTFTSDYSKYLEERAAK*EFIAWLEGEG) [dgc021]
1.23	0.342	HXQGTFTSDYSKYLEERAAKEFIAWLEGG (HELM PEPTIDE1{H.[Aib].Q.G.T.F.T.S.D.Y.S.K.Y.L.E.E.R.A.A.K.E.F.I.A.W.L.E.G.G.[am]}|PEPTIDE2{[CCCCCCCCCCCCCCCC(=O)[*:2]].[gGlu].[gGlu]}$PEPTIDE1,PEPTIDE2,20:R3-3:R2$$$V2.0; N-terminus assumed; SMILES CCCCCCCCCCCCCCCC(=O)N[C@@H](CCC(=O)N[C@@H](CCC(=O)NCCCC[C@H](NC(=O)[C@H](C)NC(=O)[C@H](C)NC(=O)[C@H](CCCNC(=N)N)NC(=O)[C@H](CCC(=O)O)NC(=O)[C@H](CCC(=O)O)NC(=O)[C@H](CC(C)C)NC(=O)[C@H](Cc1ccc(O)cc1)NC(=O)[C@H](CCCCN)NC(=O)[C@H](CO)NC(=O)[C@H](Cc1ccc(O)cc1)NC(=O)[C@H](CC(=O)O)NC(=O)[C@H](CO)NC(=O)[C@@H](NC(=O)[C@H](Cc1ccccc1)NC(=O)[C@@H](NC(=O)CNC(=O)[C@H](CCC(N)=O)NC(=O)C(C)(C)NC(=O)[C@@H](N)Cc1c[nH]cn1)[C@@H](C)O)[C@@H](C)O)C(=O)N[C@@H](CCC(=O)O)C(=O)N[C@@H](Cc1ccccc1)C(=O)N[C@H](C(=O)N[C@@H](C)C(=O)N[C@@H](Cc1c[nH]c2ccccc12)C(=O)N[C@@H](CC(C)C)C(=O)N[C@@H](CCC(=O)O)C(=O)NCC(=O)NCC(N)=O)[C@@H](C)CC)C(=O)O)C(=O)O) [dgc016]
0.627	3.95	HXQGTFTSDYSKYLDEKAAKEFIAWLEGG (HELM PEPTIDE1{H.[Aib].Q.G.T.F.T.S.D.Y.S.K.Y.L.D.E.K.A.A.K.E.F.I.A.W.L.E.G.G.[am]}|PEPTIDE2{[CCCCCCCCCCCCCCCC(=O)[*:2]].[gGlu]}$PEPTIDE1,PEPTIDE2,20:R3-2:R2$$$V2.0; N-terminus assumed; SMILES CCCCCCCCCCCCCCCC(=O)N[C@@H](CCC(=O)NCCCC[C@H](NC(=O)[C@H](C)NC(=O)[C@H](C)NC(=O)[C@H](CCCCN)NC(=O)[C@H](CCC(=O)O)NC(=O)[C@H](CC(=O)O)NC(=O)[C@H](CC(C)C)NC(=O)[C@H](Cc1ccc(O)cc1)NC(=O)[C@H](CCCCN)NC(=O)[C@H](CO)NC(=O)[C@H](Cc1ccc(O)cc1)NC(=O)[C@H](CC(=O)O)NC(=O)[C@H](CO)NC(=O)[C@@H](NC(=O)[C@H](Cc1ccccc1)NC(=O)[C@@H](NC(=O)CNC(=O)[C@H](CCC(N)=O)NC(=O)C(C)(C)NC(=O)[C@@H](N)Cc1c[nH]cn1)[C@@H](C)O)[C@@H](C)O)C(=O)N[C@@H](CCC(=O)O)C(=O)N[C@@H](Cc1ccccc1)C(=O)N[C@H](C(=O)N[C@@H](C)C(=O)N[C@@H](Cc1c[nH]c2ccccc12)C(=O)N[C@@H](CC(C)C)C(=O)N[C@@H](CCC(=O)O)C(=O)NCC(=O)NCC(N)=O)[C@@H](C)CC)C(=O)O) [dgc017]
0.899	1.53	HXQGTFTSDYSKYLEERAAKEFIAWLEGG (HELM PEPTIDE1{H.[Aib].Q.G.T.F.T.S.D.Y.S.K.Y.L.E.E.R.A.A.K.E.F.I.A.W.L.E.G.G.[am]}|PEPTIDE2{[CCCCCCCCCCCCCCCC(=O)[*:2]].[gGlu]}$PEPTIDE1,PEPTIDE2,20:R3-2:R2$$$V2.0; N-terminus assumed; SMILES CCCCCCCCCCCCCCCC(=O)N[C@@H](CCC(=O)NCCCC[C@H](NC(=O)[C@H](C)NC(=O)[C@H](C)NC(=O)[C@H](CCCNC(=N)N)NC(=O)[C@H](CCC(=O)O)NC(=O)[C@H](CCC(=O)O)NC(=O)[C@H](CC(C)C)NC(=O)[C@H](Cc1ccc(O)cc1)NC(=O)[C@H](CCCCN)NC(=O)[C@H](CO)NC(=O)[C@H](Cc1ccc(O)cc1)NC(=O)[C@H](CC(=O)O)NC(=O)[C@H](CO)NC(=O)[C@@H](NC(=O)[C@H](Cc1ccccc1)NC(=O)[C@@H](NC(=O)CNC(=O)[C@H](CCC(N)=O)NC(=O)C(C)(C)NC(=O)[C@@H](N)Cc1c[nH]cn1)[C@@H](C)O)[C@@H](C)O)C(=O)N[C@@H](CCC(=O)O)C(=O)N[C@@H](Cc1ccccc1)C(=O)N[C@H](C(=O)N[C@@H](C)C(=O)N[C@@H](Cc1c[nH]c2ccccc12)C(=O)N[C@@H](CC(C)C)C(=O)N[C@@H](CCC(=O)O)C(=O)NCC(=O)NCC(N)=O)[C@@H](C)CC)C(=O)O) [dgc015]
1.51	0.883	HXQGTFTSDYSKYLEERAAKEFIAWLEGEG (HELM PEPTIDE1{H.[Aib].Q.G.T.F.T.S.D.Y.S.K.Y.L.E.E.R.A.A.K.E.F.I.A.W.L.E.G.E.G.[am]}|PEPTIDE2{[CCCCCCCCCCCCCCCC(=O)[*:2]].[gGlu].[gGlu]}$PEPTIDE1,PEPTIDE2,20:R3-3:R2$$$V2.0; N-terminus assumed; SMILES CCCCCCCCCCCCCCCC(=O)N[C@@H](CCC(=O)N[C@@H](CCC(=O)NCCCC[C@H](NC(=O)[C@H](C)NC(=O)[C@H](C)NC(=O)[C@H](CCCNC(=N)N)NC(=O)[C@H](CCC(=O)O)NC(=O)[C@H](CCC(=O)O)NC(=O)[C@H](CC(C)C)NC(=O)[C@H](Cc1ccc(O)cc1)NC(=O)[C@H](CCCCN)NC(=O)[C@H](CO)NC(=O)[C@H](Cc1ccc(O)cc1)NC(=O)[C@H](CC(=O)O)NC(=O)[C@H](CO)NC(=O)[C@@H](NC(=O)[C@H](Cc1ccccc1)NC(=O)[C@@H](NC(=O)CNC(=O)[C@H](CCC(N)=O)NC(=O)C(C)(C)NC(=O)[C@@H](N)Cc1c[nH]cn1)[C@@H](C)O)[C@@H](C)O)C(=O)N[C@@H](CCC(=O)O)C(=O)N[C@@H](Cc1ccccc1)C(=O)N[C@H](C(=O)N[C@@H](C)C(=O)N[C@@H](Cc1c[nH]c2ccccc12)C(=O)N[C@@H](CC(C)C)C(=O)N[C@@H](CCC(=O)O)C(=O)NCC(=O)N[C@@H](CCC(=O)O)C(=O)NCC(N)=O)[C@@H](C)CC)C(=O)O)C(=O)O) [dgc020]
